Source: publication PMC5931990

Target: Mouse CLIC6 CLIC domain (residues 363-597) (mouse) (UniProt Q8BHB9)
Test: SEC; analytical gel filtration after 10 minutes with 0 to 2 mM H2O2; running buffer without reducing or oxidative agents

Mouse CLIC6 CLIC domain (residues 363-597) (from UniProt Q8BHB9 363-596) (domain or fragment)
stoichiometry N: 2
